Reference: patent US20220403001A1, “PDE5 DERIVED REGULATORY CONSTRUCTS AND METHODS OF USE IN IMMUNOTHERAPY” (Obsidian Therapeutics, Inc., priority 2018, published 2022)

Key:
hPDE5 mutants [1] = molecular target: T1, hPDE5 mutants (Homo sapiens, UniProt O76074); experiment: Western blot of AcGFP/GFP protein levels in HCT 116 cells expressing hPDE5 mutants; assay type: cell-based; design: GFP protein levels (western blot); fused on or other part: AcGFP reporter through a linker; settings: vardenafil vs DMSO, HCT 116, R732 mutants
Protocol: Protein expression analysis of the combination mutants was performed in parallel via western blot. […] GAPDH levels were also analyzed to ensure even protein loading.

hPDE5 mutants [2] = molecular target: T1, hPDE5 mutants; experiment: GFP MFI by FACS in HCT116 cells transduced with hPDE5 constructs; assay type: cell-based; settings: for Vardenafil Stabilization ratio / Sildenafil Stabilization ratio / GFP by FACS, Sildenafil 10 μM / GFP by FACS, Vardenafil 1 μM: hotspot constructs; for Vardenafil Stabilization ratio: 1 μM Vardenafil; for Sildenafil Stabilization ratio: 10 μM Sildenafil; for GFP by FACS, Sildenafil 10 μM / GFP by FACS, Vardenafil 1 μM: HCT116
Protocol: (§1) Desirable qualities of a DD include, low expression of the SRE in the absence of ligand and ligand dependent stabilization of the SRE. Constructs were generated using DDs linked to GFP using an SG linker. […] The mean fluorescence intensity (MFI) of GFP was analyzed by FACS. […] Destabilizing mutation coefficient less than 1 are desirable.
(§2) Mean fluorescence intensity (MFI) was measured by FACS. […] Destabilizing mutation coefficient ratios less than 1 are desirable.
(§3) Mean fluorescence intensity (MFI) was measured by FACS. […] Destabilizing mutation co-efficient ratios less than 1 are desirable.
(§4) Mean fluorescence intensity (MFI) was measured by FACS. […] Destabilizing mutation coefficient less than 1 are desirable.
as §4
(§5) Mean fluorescence intensity (MFI) of GFP was measured by FACS.
(§6) Mean fluorescence intensity (MFI) was measured by FACS.
(§7) The media containing the ligand was removed and fresh media without the ligand was added.
(§8) The properties of the DDs were analyzed in the presence and absence of ligands via FACS as previously described.
(§9) GFP fluorescence was measured by FACS.
(§10) The properties of the DDs were analyzed via FACS both in the presence and absence of ligands.
as §9

hPDE5 mutants [3] = experiment: as above; assay type: cell-based, human; settings: for Sildenafil Destabilizing mutation coefficient / Vardenafil Destabilizing mutation coefficient / GFP by FACS, Sildenafil 0 μM (DMSO) / GFP by FACS, Vardenafil 0 μM (DMSO): hotspot constructs; for Sildenafil Destabilizing mutation coefficient: DMSO control of Sildenafil; for Sildenafil Destabilizing mutation coefficient / Vardenafil Destabilizing mutation coefficient: vs OT-001075; for Vardenafil Destabilizing mutation coefficient: DMSO control of Vardenafil; for GFP by FACS, Sildenafil 0 μM (DMSO): HCT116, DMSO control of Sildenafil; for GFP by FACS, Vardenafil 0 μM (DMSO): HCT116, DMSO control of Vardenafil; for MFI: 48 hours, HCT 116 cells
Protocol: as §1, §2, §3, §4, §4, §5, §6, §7, §8, §9, §10, §9

[4] = Table 44, Vardenafil 0.01 μM, 48 h, HCT 116
[5] = Table 44, Vardenafil 0.04 μM, 48 h, HCT 116
[6] = Table 44, Vardenafil 3.33 μM, 48 h, HCT 116
[7] = Table 44, Vardenafil 10 μM, 48 h, HCT 116
[8] = Table 44, Vardenafil 30 μM, 48 h, HCT 116
[9] = Table 44, Vardenafil 1000 μM, 48 h, HCT 116
[10] = Table 45, Sildenafil 0.01 μM, 48 h, HCT 116
[11] = Table 45, Sildenafil 0.04 μM, 48 h, HCT 116
[12] = Table 45, Sildenafil 3.33 μM, 48 h, HCT 116
[13] = Table 45, Sildenafil 10 μM, 48 h, HCT 116
[14] = Table 45, Sildenafil 30 μM, 48 h, HCT 116
[15] = Table 45, Sildenafil 1000 μM, 48 h, HCT 116
[16] = Tadalafil 0.01 μM, 48 hours, HCT 116 cells

Substance	GFP protein levels (western blot) (hPDE5 mutants [1])	Vardenafil Stabilization ratio (hPDE5 mutants [2])	Sildenafil Stabilization ratio (hPDE5 mutants [2])	GFP by FACS, Sildenafil 10 μM (hPDE5 mutants [2])	GFP by FACS, Vardenafil 1 μM (hPDE5 mutants [2])	Sildenafil Destabilizing mutation coefficient (hPDE5 mutants [3])	Vardenafil Destabilizing mutation coefficient (hPDE5 mutants [3])	GFP by FACS, Sildenafil 0 μM (DMSO) (hPDE5 mutants [3])	GFP by FACS, Vardenafil 0 μM (DMSO) (hPDE5 mutants [3])	also measured
OT-001188: hPDE5 R732V AcGFP construct	Modest ligand dependent stabilization of GFP levels	3.38	0.6	113	507	0.19	0.93	189	150	–
OT-001189: hPDE5 R732I AcGFP construct	Modest ligand dependent stabilization of GFP levels	3.89	0.85	170	587	0.2	0.94	201	151	MFI (hPDE5 mutants [2]; [4]): 1810; MFI (hPDE5 mutants [2]; [5]): 3356; MFI (hPDE5 mutants [2]; [6]): 14531; MFI (hPDE5 mutants [2]; [7]): 17645; MFI (hPDE5 mutants [2]; [8]): 24322; MFI (hPDE5 mutants [2]; [9]): 24322; MFI (hPDE5 mutants [2]; [10]): 579; MFI (hPDE5 mutants [2]; [11]): 612; MFI (hPDE5 mutants [2]; [12]): 1709; MFI (hPDE5 mutants [2]; [13]): 2733; MFI (hPDE5 mutants [2]; [14]): 4197; MFI (hPDE5 mutants [2]; [15]): 4197; MFI (hPDE5 mutants [2]; [16]): 498; MFI (hPDE5 mutants [3]; Tadalafil 11.11 μM): 2746; MFI (hPDE5 mutants [3]; Tadalafil 33.33 μM): 3970; MFI (hPDE5 mutants [3]; Tadalafil 100 μM): 5487; MFI (hPDE5 mutants [3]; Tadalafil 1000 μM): 5487
OT-001190: hPDE5 R732P AcGFP construct	strong stabilization of GFP levels	0.87	0.95	361	310	0.38	2.2	379	355	–
OT-001191: hPDE5 R732F AcGFP construct	Modest ligand dependent stabilization of GFP levels	4.99	1.51	351	943	0.24	1.17	233	189	MFI (hPDE5 mutants [2]; [4]): 2188; MFI (hPDE5 mutants [2]; [5]): 8468; MFI (hPDE5 mutants [2]; [6]): 14705; MFI (hPDE5 mutants [2]; [7]): 17021; MFI (hPDE5 mutants [2]; [8]): 20693; MFI (hPDE5 mutants [2]; [9]): 20693; MFI (hPDE5 mutants [2]; [10]): 688; MFI (hPDE5 mutants [2]; [11]): 916; MFI (hPDE5 mutants [2]; [12]): 3555; MFI (hPDE5 mutants [2]; [13]): 4427; MFI (hPDE5 mutants [2]; [14]): 5449; MFI (hPDE5 mutants [2]; [15]): 5449; MFI (hPDE5 mutants [2]; [16]): 631; MFI (hPDE5 mutants [3]; Tadalafil 11.11 μM): 4734; MFI (hPDE5 mutants [3]; Tadalafil 33.33 μM): 5293; MFI (hPDE5 mutants [3]; Tadalafil 100 μM): 5867; MFI (hPDE5 mutants [3]; Tadalafil 1000 μM): 5867
OT-001192: hPDE5 R732W AcGFP construct	strong stabilization of GFP levels	0.59	0.64	158	179	0.25	1.87	248	301	–
OT-001193: hPDE5 R732Y AcGFP construct	strong stabilization of GFP levels	1.14	1.63	648	345	0.4	1.88	397	302	–
OT-001195: hPDE5 R732H AcGFP construct	strong stabilization of GFP levels	1.06	2.02	710	328	0.36	1.91	352	308	–
